Columns and labels:
[1] = target: endophilin SH3 (SH3G2_HUMAN), Q99962; experiment: SPOT array
[2] = target: T1, amphyphisin SH3 (AMPH_HUMAN), P49418; experiment: SPOT array
T1 chain: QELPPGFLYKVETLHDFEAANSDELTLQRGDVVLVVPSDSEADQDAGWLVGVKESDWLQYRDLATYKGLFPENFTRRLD

B1: Q9HAM8 259-272 (peptide)
chain: THLLIKRPPFFHYR
B1 gave a normalised SPOT signal, Boehringer light units (BLU); mean over the file's lines of this peptide [1] of 2020 and a normalised SPOT signal, Boehringer light units (BLU); mean over the file's lines of this peptide [2] of 33.8.

B2: P43652 501-514 (peptide)
chain: TNFAFRRPSFESLK
With B2 the normalised SPOT signal, Boehringer light units (BLU); mean over the file's lines of this peptide [1] was 414 and the normalised SPOT signal, Boehringer light units (BLU); mean over the file's lines of this peptide [2] was 45.2.

B3: Q96PE2 193-206 (peptide)
chain: TEGRLRRPQQQQER
With B3 the normalised SPOT signal, Boehringer light units (BLU); mean over the file's lines of this peptide [1] was 0 and the normalised SPOT signal, Boehringer light units (BLU); mean over the file's lines of this peptide [2] was 30.

B4: Q9ULR8 121-134 (peptide)
chain: TENAPSRPLRRRRK
With B4 the normalised SPOT signal, Boehringer light units (BLU); mean over the file's lines of this peptide [1] was 1650 and the normalised SPOT signal, Boehringer light units (BLU); mean over the file's lines of this peptide [2] was 18800.

B5: Q9UBI4 175-188 (peptide)
chain: TKALLKRPLREIQM
B5 gave a normalised SPOT signal, Boehringer light units (BLU); mean over the file's lines of this peptide [1] of 170 and a normalised SPOT signal, Boehringer light units (BLU); mean over the file's lines of this peptide [2] of 866.

B6: Q9UBY0 781-795 (peptide)
chain: TEGIPPKPPPRLVW
In the case of B6, the normalised SPOT signal, Boehringer light units (BLU); mean over the file's lines of this peptide [1] is reported as 1260 and the normalised SPOT signal, Boehringer light units (BLU); mean over the file's lines of this peptide [2] is reported as 2770.

B7: Q9UKN7 2430-2443 (peptide)
chain: TEDTPRRPPEPKPI
With B7 the normalised SPOT signal, Boehringer light units (BLU); mean over the file's lines of this peptide [1] was 16.8 and the normalised SPOT signal, Boehringer light units (BLU); mean over the file's lines of this peptide [2] was 16.8.

B8: Q9BZL6 226-240 (peptide)
chain: TELLPRRPPSSSSS
B8 showed a normalised SPOT signal, Boehringer light units (BLU); mean over the file's lines of this peptide [1] of 339 and a normalised SPOT signal, Boehringer light units (BLU); mean over the file's lines of this peptide [2] of 118.

B9: Q9BZS0 2280-2294 (peptide)
chain: TGGGPGRPPDWTPH
Work on B9 yielded a normalised SPOT signal, Boehringer light units (BLU); mean over the file's lines of this peptide [1] of 668 and a normalised SPOT signal, Boehringer light units (BLU); mean over the file's lines of this peptide [2] of 43.3.

B10: Q9H4S4 61-74 (peptide)
chain: SELRLSRPPKAYGS
Binder B10 has a normalised SPOT signal, Boehringer light units (BLU); mean over the file's lines of this peptide [1] of 13.3 and a normalised SPOT signal, Boehringer light units (BLU); mean over the file's lines of this peptide [2] of 36.1.

B11: P35568 851-864 (peptide)
chain: TNSRLARPTRLSLG
Binder B11 has a normalised SPOT signal, Boehringer light units (BLU); mean over the file's lines of this peptide [1] of 1890 and a normalised SPOT signal, Boehringer light units (BLU); mean over the file's lines of this peptide [2] of 1760.

B12: Q9BXL6 817-830 (peptide)
chain: TLVWPHRPARPRPV
B12 gave a normalised SPOT signal, Boehringer light units (BLU); mean over the file's lines of this peptide [1] of 2240 and a normalised SPOT signal, Boehringer light units (BLU); mean over the file's lines of this peptide [2] of 613.

B13: Q9BUY9 390-404 (peptide)
chain: TPASPRRPPALRSQ
With B13 the normalised SPOT signal, Boehringer light units (BLU); mean over the file's lines of this peptide [1] was 6640 and the normalised SPOT signal, Boehringer light units (BLU); mean over the file's lines of this peptide [2] was 843.

B14: Q13329 90-103 (peptide)
chain: SEGSLTRPKKAIPA
B14 gave a normalised SPOT signal, Boehringer light units (BLU); mean over the file's lines of this peptide [1] of 128 and a normalised SPOT signal, Boehringer light units (BLU); mean over the file's lines of this peptide [2] of 76.6.

B15: Q9UPN7 147-160 (peptide)
chain: TLLEPRRPRSESVT
B15 showed a normalised SPOT signal, Boehringer light units (BLU); mean over the file's lines of this peptide [1] of 113 and a normalised SPOT signal, Boehringer light units (BLU); mean over the file's lines of this peptide [2] of 29.7.

B16: P40126 196-209 (peptide)
chain: TLLGPGRPYRAIDF
Work on B16 yielded a normalised SPOT signal, Boehringer light units (BLU); mean over the file's lines of this peptide [1] of 488 and a normalised SPOT signal, Boehringer light units (BLU); mean over the file's lines of this peptide [2] of 184.

B17: Q9HAS2 64-77 (peptide)
chain: TKIPFKRPRGHNFS
Binder B17 has a normalised SPOT signal, Boehringer light units (BLU); mean over the file's lines of this peptide [1] of 22.1 and a normalised SPOT signal, Boehringer light units (BLU); mean over the file's lines of this peptide [2] of 53.7.

B18: O75949 160-174 (peptide)
chain: TPAPPLRPPDSPSR
B18 showed a normalised SPOT signal, Boehringer light units (BLU); mean over the file's lines of this peptide [1] of 2060 and a normalised SPOT signal, Boehringer light units (BLU); mean over the file's lines of this peptide [2] of 280.

B19: O75521 116-129 (peptide)
chain: TKIMFNRPKKKNAI
For B19, the normalised SPOT signal, Boehringer light units (BLU); mean over the file's lines of this peptide [1] was 112 and the normalised SPOT signal, Boehringer light units (BLU); mean over the file's lines of this peptide [2] was 80.4.

B20: Q9NSG0 388-402 (peptide)
chain: TKTPPPRPPLPTQQ
B20 was tested, and the normalised SPOT signal, Boehringer light units (BLU); mean over the file's lines of this peptide [1] was 13500 and the normalised SPOT signal, Boehringer light units (BLU); mean over the file's lines of this peptide [2] was 708.

B21: O43539 57-71 (peptide)
chain: TIPKPPKPPDKPLM
Work on B21 yielded a normalised SPOT signal, Boehringer light units (BLU); mean over the file's lines of this peptide [1] of 1750 and a normalised SPOT signal, Boehringer light units (BLU); mean over the file's lines of this peptide [2] of 59.5.

B22: Q969I6 440-453 (peptide)
chain: TLLFPKRPFSWIRH
Binder B22 has a normalised SPOT signal, Boehringer light units (BLU); mean over the file's lines of this peptide [1] of 1590 and a normalised SPOT signal, Boehringer light units (BLU); mean over the file's lines of this peptide [2] of 123.

B23: Q96NX2 23-37 (peptide)
chain: TLKRPKRPPLKEFF
For B23, the normalised SPOT signal, Boehringer light units (BLU); mean over the file's lines of this peptide [1] was 15000 and the normalised SPOT signal, Boehringer light units (BLU); mean over the file's lines of this peptide [2] was 2720.

B24: Q9H6K5 343-356 (peptide)
chain: TLQAPRRPPTPGPD
B24 was tested, and the normalised SPOT signal, Boehringer light units (BLU); mean over the file's lines of this peptide [1] was 1890 and the normalised SPOT signal, Boehringer light units (BLU); mean over the file's lines of this peptide [2] was 35.3.

B25: Q9BT43 129-143 (peptide)
chain: TILLPKRPPKTTED
B25 was tested, and the normalised SPOT signal, Boehringer light units (BLU); mean over the file's lines of this peptide [1] was 916 and the normalised SPOT signal, Boehringer light units (BLU); mean over the file's lines of this peptide [2] was 282.

B26: O95206 1031-1044 (peptide)
chain: TLLSPPRPGRLPDL
With B26 the normalised SPOT signal, Boehringer light units (BLU); mean over the file's lines of this peptide [1] was 192 and the normalised SPOT signal, Boehringer light units (BLU); mean over the file's lines of this peptide [2] was 443.

B27: Q9Y6Y1 1215-1228 (peptide)
chain: TNPELRRPRSEPSN
With B27 the normalised SPOT signal, Boehringer light units (BLU); mean over the file's lines of this peptide [1] was 41.2 and the normalised SPOT signal, Boehringer light units (BLU); mean over the file's lines of this peptide [2] was 34.7.

B28: AAH28697 239-253 (peptide)
chain: TNFPPPRPPPPSRP
Work on B28 yielded a normalised SPOT signal, Boehringer light units (BLU); mean over the file's lines of this peptide [1] of 11200 and a normalised SPOT signal, Boehringer light units (BLU); mean over the file's lines of this peptide [2] of 1610.

B29: Q8WX45 160-174 (peptide)
chain: TPAPPLRPPDSLSR
B29 showed a normalised SPOT signal, Boehringer light units (BLU); mean over the file's lines of this peptide [1] of 647 and a normalised SPOT signal, Boehringer light units (BLU); mean over the file's lines of this peptide [2] of 446.

B30: Q9Y373 238-251 (peptide)
chain: TEEELRRPEMKNFF
Work on B30 yielded a normalised SPOT signal, Boehringer light units (BLU); mean over the file's lines of this peptide [1] of 28.7 and a normalised SPOT signal, Boehringer light units (BLU); mean over the file's lines of this peptide [2] of 34.2.

B31: Q96T37 401-414 (peptide)
chain: TEVDIKRPSRGQTS
B31 was tested, and the normalised SPOT signal, Boehringer light units (BLU); mean over the file's lines of this peptide [1] was 77.7 and the normalised SPOT signal, Boehringer light units (BLU); mean over the file's lines of this peptide [2] was 656.

B32: Q9NYK9 18-31 (peptide)
chain: TLLALQRPQRLHHH
For B32, the normalised SPOT signal, Boehringer light units (BLU); mean over the file's lines of this peptide [1] was 877 and the normalised SPOT signal, Boehringer light units (BLU); mean over the file's lines of this peptide [2] was 3250.

B33: Q9UFR3 88-101 (peptide)
chain: TFGIPLRPNRGRGG
With B33 the normalised SPOT signal, Boehringer light units (BLU); mean over the file's lines of this peptide [1] was 583 and the normalised SPOT signal, Boehringer light units (BLU); mean over the file's lines of this peptide [2] was 8170.

B34: O94847 104-117 (peptide)
chain: TIPPFERPFKDHQV
For B34, the normalised SPOT signal, Boehringer light units (BLU); mean over the file's lines of this peptide [1] was 127 and the normalised SPOT signal, Boehringer light units (BLU); mean over the file's lines of this peptide [2] was 0.

B35: P54098 556-569 (peptide)
chain: TELLPKRPQHLPGH
In the case of B35, the normalised SPOT signal, Boehringer light units (BLU); mean over the file's lines of this peptide [1] is reported as 21.9 and the normalised SPOT signal, Boehringer light units (BLU); mean over the file's lines of this peptide [2] is reported as 34.4.

B36: Q12946 14-27 (peptide)
chain: TNAGIRRPEKPPYS
B36 gave a normalised SPOT signal, Boehringer light units (BLU); mean over the file's lines of this peptide [1] of 113 and a normalised SPOT signal, Boehringer light units (BLU); mean over the file's lines of this peptide [2] of 70.3.

B37: O75598 106-119 (peptide)
chain: SEHNPKRPVTSEQG
With B37 the normalised SPOT signal, Boehringer light units (BLU); mean over the file's lines of this peptide [1] was 19.4 and the normalised SPOT signal, Boehringer light units (BLU); mean over the file's lines of this peptide [2] was 33.3.

B38: Q9NQX6 85-98 (peptide)
chain: SEGTLERPQRSRGR
In the case of B38, the normalised SPOT signal, Boehringer light units (BLU); mean over the file's lines of this peptide [1] is reported as 125 and the normalised SPOT signal, Boehringer light units (BLU); mean over the file's lines of this peptide [2] is reported as 930.

B39: BAC03441 170-184 (peptide)
chain: TKDSPGKPPMAPPS
Work on B39 yielded a normalised SPOT signal, Boehringer light units (BLU); mean over the file's lines of this peptide [1] of 80.7 and a normalised SPOT signal, Boehringer light units (BLU); mean over the file's lines of this peptide [2] of 90.4.

B40: Q9Y2E4 59-73 (peptide)
chain: TLKRPKRPPLREFF
B40 gave a normalised SPOT signal, Boehringer light units (BLU); mean over the file's lines of this peptide [1] of 24900 and a normalised SPOT signal, Boehringer light units (BLU); mean over the file's lines of this peptide [2] of 3950.

B41: Q9H296 344-357 (peptide)
chain: TMSSIYRPLKPRTN
B41 showed a normalised SPOT signal, Boehringer light units (BLU); mean over the file's lines of this peptide [1] of 120 and a normalised SPOT signal, Boehringer light units (BLU); mean over the file's lines of this peptide [2] of 97.2.

B42: Q02817 4993-5006 (peptide)
chain: THSIIKRPDNQHVI
In the case of B42, the normalised SPOT signal, Boehringer light units (BLU); mean over the file's lines of this peptide [1] is reported as 56.3 and the normalised SPOT signal, Boehringer light units (BLU); mean over the file's lines of this peptide [2] is reported as 38.6.
